Source: patent publication US12104181B2, “Compositions and methods for treating viral infections targeting TRIM7” (THE BOARD OF REGENTS OF THE UNIVERSITY OF TEXAS SYSTEM, priority 2021, dated 2024)

System: coxsackievirus B3 (CVB3-GFP)
Format: cell-based
Conditions: HeLa cells, replicate R1

B1: RNF41: human RING type E3 ligase expressed from lentiviral vector (protein, UniProt Q9H4P4 1-317, looked up)
E3 ubiquitin-protein ligase …: MGYDVTRFQGDVDEDLICPICSGVLEEPVQAPHCEHAFCNACITQWFSQQQTCPVDRSVVTVAHLRPVPRIMRNMLSKLQIACDNAVFGCSAVVRLDNLMSHLSDCEHNPKRPVTCEQGCGLEMPKDELPNHNCIKHLRSVVQQQQTRIAELEKTSAEHKHQLAEQKRDIQLLKAYMRAIRSVNPNLQNLEETIEYNEILEWVNSLQPARVTRWGGMISTPDAVLQAVIKRSLVESGCPASIVNELIENAHERSWPQGLATLETRQMNRRYYENYVAKRIPGKQAVVVMACENQHMGDDMVQEPGLVMIFAHGVEEI
modifications: lentiviral expression
notes: human RING type E3 ligase expressed from lentiviral vector
GFP-positive cells within RFP-positive gate
  Percent Infected R1: 93.5%
  Z score R1: 0.06
